Experimental data from PMC3632103.
Positions count from the first letter of the chain named. Where two headings read alike, the source gives them in different places.

T1: D2 helicase K405E (His-MBP fusion) (Bacteriophage T5, UniProt Q6QGH9 1-928, K405E)
T1 sequence: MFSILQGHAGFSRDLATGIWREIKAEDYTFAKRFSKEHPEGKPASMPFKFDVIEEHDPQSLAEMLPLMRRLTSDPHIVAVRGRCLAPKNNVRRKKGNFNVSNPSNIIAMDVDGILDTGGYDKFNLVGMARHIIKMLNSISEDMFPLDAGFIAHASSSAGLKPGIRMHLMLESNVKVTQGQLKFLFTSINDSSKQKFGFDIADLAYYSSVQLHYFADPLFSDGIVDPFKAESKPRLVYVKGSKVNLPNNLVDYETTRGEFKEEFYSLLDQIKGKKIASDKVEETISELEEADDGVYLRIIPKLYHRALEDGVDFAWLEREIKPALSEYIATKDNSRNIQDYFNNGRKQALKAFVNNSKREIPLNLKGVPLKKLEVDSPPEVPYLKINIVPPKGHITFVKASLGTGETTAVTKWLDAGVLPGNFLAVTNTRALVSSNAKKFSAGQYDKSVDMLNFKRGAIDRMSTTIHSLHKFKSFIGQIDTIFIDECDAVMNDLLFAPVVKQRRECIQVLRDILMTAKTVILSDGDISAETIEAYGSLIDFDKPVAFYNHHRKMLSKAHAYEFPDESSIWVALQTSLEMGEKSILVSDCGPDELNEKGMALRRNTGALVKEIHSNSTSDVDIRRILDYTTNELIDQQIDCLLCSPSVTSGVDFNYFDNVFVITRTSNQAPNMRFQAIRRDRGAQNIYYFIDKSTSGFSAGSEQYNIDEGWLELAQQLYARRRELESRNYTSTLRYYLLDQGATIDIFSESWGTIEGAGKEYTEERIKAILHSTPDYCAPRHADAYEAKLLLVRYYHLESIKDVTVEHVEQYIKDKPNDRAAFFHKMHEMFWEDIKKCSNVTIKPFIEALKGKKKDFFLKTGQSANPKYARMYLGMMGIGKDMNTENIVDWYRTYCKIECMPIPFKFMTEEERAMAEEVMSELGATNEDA

T2: D2 helicase WT (His-MBP fusion) (Bacteriophage T5, UniProt Q6QGH9 1-928)
T2 sequence: T1 sequence with E405K

B1: T55 (ssDNA)
DNA: TTTTTTTTTTTTTTTTTTTTTTTTTTTTTTTTTTTTTTTTTTTTTTTTTTTTTTT

Key:
Assay in all cases: EMSA
[1] = target: T1, D2 helicase K405E (His-MBP fusion)
[2] = target: T2, D2 helicase WT (His-MBP fusion)
[3] = target: T2, D2 helicase WT (His-MBP fusion); remark: listed apart in the source

Binder	binding result [1]	binding result [2]	binding result [3]
TTTTTTTTTTTTTTTTTTTTTTTTT (ssDNA) [T25]	binds	binds	
TTTTTTTTTTTTTTTTTTTTTTTTTTTTTTTTTTT (ssDNA) [T35]			binds
B1			binds
